Patent US7494767 (FUNCTIONAL GENETICS, dated 2009)

B4: GAL4 DNA-binding domain-p1-p6 fusion protein (other)
chain: MKLLSSIEQACDICRLKKLKCSKEKPKCAKCLKNNWECRYSPKTKRSPLTRAHLTEVESRLERLEQLFLLIFPREDLDMILKMDSLQDIKALLTGLFVQDNVNKDAVTDRLASVETDMPLTLRQHRISATSSSEESSNKGQRQLTVSGKIWPSYKGRPGNFLQSRPEPTAPPFLQSRPEPTAPPEESFRSGVETTTPPQKQEPIDKELYPLTSLRSLFGNDPSSQ
notes: also called pGBT9-p1p6; Gag^p6

Tests used:
[1] = biological target: B4; assay: yeast 2-hybrid
[2] = biological target: T1, GAL4 activation domain-Tsg101 fusion protein (wild-type human Tsg101) (yeast; human, UniProt Q99816 1-390); assay: yeast 2-hybrid, LacZ reporter
T1 construct: also called hTsg101; product of the human tumor susceptibility gene Tsg101
T1 sequence: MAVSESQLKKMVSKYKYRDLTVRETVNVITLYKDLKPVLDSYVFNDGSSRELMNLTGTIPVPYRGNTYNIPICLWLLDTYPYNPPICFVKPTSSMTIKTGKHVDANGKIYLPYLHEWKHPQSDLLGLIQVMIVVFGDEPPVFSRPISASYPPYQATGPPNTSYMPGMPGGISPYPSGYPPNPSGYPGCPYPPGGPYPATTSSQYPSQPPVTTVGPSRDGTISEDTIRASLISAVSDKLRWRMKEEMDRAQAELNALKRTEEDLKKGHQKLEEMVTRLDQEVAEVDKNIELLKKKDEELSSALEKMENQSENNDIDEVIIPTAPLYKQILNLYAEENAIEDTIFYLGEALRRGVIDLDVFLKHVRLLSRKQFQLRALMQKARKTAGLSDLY

[3] = biological target: T2, GAL4 activation domain-Tsg101 N-terminal 311-residue fragment (yeast; human, UniProt Q99816 1-311); assay: yeast 2-hybrid
T2 construct: also called N-311
T2 sequence: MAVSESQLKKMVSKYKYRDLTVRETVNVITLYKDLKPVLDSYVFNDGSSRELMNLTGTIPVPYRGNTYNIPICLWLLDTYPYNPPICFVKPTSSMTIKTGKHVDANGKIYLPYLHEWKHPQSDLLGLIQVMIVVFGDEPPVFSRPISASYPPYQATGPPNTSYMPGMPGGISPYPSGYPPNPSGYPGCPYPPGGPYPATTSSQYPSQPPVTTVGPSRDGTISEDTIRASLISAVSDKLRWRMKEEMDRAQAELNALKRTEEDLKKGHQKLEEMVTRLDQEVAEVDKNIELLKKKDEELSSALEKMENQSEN

[4] = biological target: T3, GAL4 activation domain-Tsg101 fragment from aa139 to the C-terminus (yeast; human, UniProt Q99816 139-390); assay: yeast 2-hybrid
T3 construct: also called 139-C
T3 sequence: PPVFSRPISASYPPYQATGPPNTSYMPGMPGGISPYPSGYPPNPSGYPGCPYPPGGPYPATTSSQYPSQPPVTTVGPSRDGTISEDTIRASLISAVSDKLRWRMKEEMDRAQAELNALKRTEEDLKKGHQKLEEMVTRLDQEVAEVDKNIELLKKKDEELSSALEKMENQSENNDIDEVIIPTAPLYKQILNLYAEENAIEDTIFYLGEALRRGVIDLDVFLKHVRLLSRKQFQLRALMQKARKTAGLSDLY

[5] = biological target: T1, GAL4 activation domain-Tsg101 fusion …; assay: yeast 2-hybrid, β-galactosidase; p1-p6 variant with Tsg101
[6] = biological target: B4; assay: yeast 2-hybrid, β-galactosidase; Tsg101 variant with p1-p6

B1: GAL4 activation domain-Tsg101 N-terminal 215-residue fragment (other)
chain: MAVSESQLKKMVSKYKYRDLTVRETVNVITLYKDLKPVLDSYVFNDGSSRELMNLTGTIPVPYRGNTYNIPICLWLLDTYPYNPPICFVKPTSSMTIKTGKHVDANGKIYLPYLHEWKHPQSDLLGLIQVMIVVFGDEPPVFSRPISASYPPYQATGPPNTSYMPGMPGGISPYPSGYPPNPSGYPGCPYPPGGPYPATTSSQYPSQPPVTTVGP
notes: also called N-215
Question: Does B1 bind [1]?
Answer: Result: binds

B2: GAL4 activation domain-Tsg101 fragment 241-C (other)
chain: RMKEEMDRAQAELNALKRTEEDLKKGHQKLEEMVTRLDQEVAEVDKNIELLKKKDEELSSALEKMENQSENNDIDEVIIPTAPLYKQILNLYAEENAIEDTIFYLGEALRRGVIDLDVFLKHVRLLSRKQFQLRALMQKARKTAGLSDLY
Question: Does B2 bind [1]?
Answer: Result: no binding

B3: GAL4 activation domain-Tsg101 fragment 311-C (other)
chain: NNDIDEVIIPTAPLYKQILNLYAEENAIEDTIFYLGEALRRGVIDLDVFLKHVRLLSRKQFQLRALMQKARKTAGLSDLY
Question: Does B3 bind [1]?
Answer: Result: no binding

Question: Does B4 bind [2]?
Answer: Result: binds

Question: Does B4 bind [3]?
Answer: Result: binds

Question: Does B4 bind [4]?
Answer: Result: no binding

B5: GAL4 DNA-binding domain-p1-p6 K493R (other)
chain: MKLLSSIEQACDICRLKKLKCSKEKPKCAKCLKNNWECRYSPKTKRSPLTRAHLTEVESRLERLEQLFLLIFPREDLDMILKMDSLQDIKALLTGLFVQDNVNKDAVTDRLASVETDMPLTLRQHRISATSSSEESSNKGQRQLTVSGKIWPSYKGRPGNFLQSRPEPTAPPFLQSRPEPTAPPEESFRSGVETTTPPQKQEPIDRELYPLTSLRSLFGNDPSSQ
Question: Does B5 bind [5]?
Answer: Result: binds

B6: GAL4 activation domain-Tsg101 with Ala for 149Ser-Tyr150 (other)
chain: MAVSESQLKKMVSKYKYRDLTVRETVNVITLYKDLKPVLDSYVFNDGSSRELMNLTGTIPVPYRGNTYNIPICLWLLDTYPYNPPICFVKPTSSMTIKTGKHVDANGKIYLPYLHEWKHPQSDLLGLIQVMIVVFGDEPPVFSRPISAAAPPYQATGPPNTSYMPGMPGGISPYPSGYPPNPSGYPGCPYPPGGPYPATTSSQYPSQPPVTTVGPSRDGTISEDTIRASLISAVSDKLRWRMKEEMDRAQAELNALKRTEEDLKKGHQKLEEMVTRLDQEVAEVDKNIELLKKKDEELSSALEKMENQSENNDIDEVIIPTAPLYKQILNLYAEENAIEDTIFYLGEALRRGVIDLDVFLKHVRLLSRKQFQLRALMQKARKTAGLSDLY
notes: also called mutation of 149Ser-Tyr150
Question: Does B6 bind [6]?
Answer: Result: binds

B7: GAL4 DNA-binding domain-p1-p6 K487,493R (other)
chain: MKLLSSIEQACDICRLKKLKCSKEKPKCAKCLKNNWECRYSPKTKRSPLTRAHLTEVESRLERLEQLFLLIFPREDLDMILKMDSLQDIKALLTGLFVQDNVNKDAVTDRLASVETDMPLTLRQHRISATSSSEESSNKGQRQLTVSGKIWPSYKGRPGNFLQSRPEPTAPPFLQSRPEPTAPPEESFRSGVETTTPPQRQEPIDRELYPLTSLRSLFGNDPSSQ
Question: Does B7 bind [5]?
Answer: Result: binds

B8: GAL4 activation domain-Tsg101 N-terminal 155-residue fragment (other)
chain: MAVSESQLKKMVSKYKYRDLTVRETVNVITLYKDLKPVLDSYVFNDGSSRELMNLTGTIPVPYRGNTYNIPICLWLLDTYPYNPPICFVKPTSSMTIKTGKHVDANGKIYLPYLHEWKHPQSDLLGLIQVMIVVFGDEPPVFSRPISASYPPYQA
notes: also called N-155
Question: Does B8 bind [1]?
Answer: Result: binds
